Complex I activity (Q reductase activity), residual rate of the mutant data for 3 substances are collected here from publication PMC7693276.

The assay concerns the target central subunit ND3 of Y. lipolytica complex I (Y. lipolytica) (UniProt Q9B6C7).
UniProt Q9B6C7, sequence (Q9B6C7 whole entry, one chain of several): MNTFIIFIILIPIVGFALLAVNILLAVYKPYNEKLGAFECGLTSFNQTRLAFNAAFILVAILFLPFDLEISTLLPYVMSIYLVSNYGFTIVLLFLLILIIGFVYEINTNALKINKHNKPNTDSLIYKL
As for “accessory subunit LYRM6 (NDUFA6) mutant F89A of Y. lipolytica complex I (natural protein)”, the complex I activity (Q reductase activity), residual rate of the mutant was less than 25%. With “accessory subunit LYRM6 (NDUFA6) mutant Y43A of Y. lipolytica complex I (natural protein)” the figure was less than 25%; with “accessory subunit LYRM6 (NDUFA6) mutant L42A of Y. lipolytica complex I (natural protein)”, less than 25%.
